The source of these data is PMC12785156, “Hydroxylation of HPPD facilitates its PUB11-mediated ubiquitination and degradation in response to oxidative stress in Arabidopsis” (Plant Communications, 2025).

T1: full-length MBP-PUB11 (Arabidopsis thaliana, UniProt Q8GUG9 1-612)
T1 construct: U-box E3 ubiquitin ligase PUB11, Arabidopsis thaliana, full-length CDS in pMAL-C2x; not shown: MBP, N-terminal, kept
T1 sequence (looked up): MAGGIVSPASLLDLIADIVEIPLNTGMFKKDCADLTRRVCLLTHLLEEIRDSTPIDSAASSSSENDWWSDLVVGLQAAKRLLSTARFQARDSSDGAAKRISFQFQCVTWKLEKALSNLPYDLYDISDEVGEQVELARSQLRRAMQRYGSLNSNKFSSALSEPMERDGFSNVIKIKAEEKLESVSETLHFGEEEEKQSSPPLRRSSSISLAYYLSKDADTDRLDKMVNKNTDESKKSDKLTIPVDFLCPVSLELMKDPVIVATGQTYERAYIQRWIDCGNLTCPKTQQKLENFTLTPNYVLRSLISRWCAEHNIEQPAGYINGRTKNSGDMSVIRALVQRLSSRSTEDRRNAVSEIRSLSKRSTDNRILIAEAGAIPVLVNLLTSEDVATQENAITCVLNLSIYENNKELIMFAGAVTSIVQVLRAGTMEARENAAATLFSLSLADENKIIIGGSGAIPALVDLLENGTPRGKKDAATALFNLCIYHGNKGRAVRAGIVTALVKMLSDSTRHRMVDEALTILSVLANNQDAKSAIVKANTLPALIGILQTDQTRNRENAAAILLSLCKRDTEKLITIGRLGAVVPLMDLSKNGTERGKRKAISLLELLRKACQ

B1: GST-PUB11-ARM (domain or fragment)
chain: QPAGYINGRTKNSGDMSVIRALVQRLSSRSTEDRRNAVSEIRSLSKRSTDNRILIAEAGAIPVLVNLLTSEDVATQENAITCVLNLSIYENNKELIMFAGAVTSIVQVLRAGTMEARENAAATLFSLSLADENKIIIGGSGAIPALVDLLENGTPRGKKDAATALFNLCIYHGNKGRAVRAGIVTALVKMLSDSTRHRMVDEALTILSVLANNQDAKSAIVKANTLPALIGILQTDQTRNRENAAAILLSLCKRDTEKLITIGRLGAVVPLMDLSKNGTERGKRKAISLLELLRKACQ
modifications: GST carrier omitted. Limits not printed: ARM region taken as everything after the U-box (240-314) to the C-terminus
B2: His-AtHPPD (Arabidopsis thaliana 4-hydroxyphenylpyruvate dioxygenase) (enzyme, UniProt P93836 1-445, looked up)
chain: MGHQNAAVSENQNHDDGAASSPGFKLVGFSKFVRKNPKSDKFKVKRFHHIEFWCGDATNVARRFSWGLGMRFSAKSDLSTGNMVHASYLLTSGDLRFLFTAPYSPSLSAGEIKPTTTASIPSFDHGSCRSFFSSHGLGVRAVAIEVEDAESAFSISVANGAIPSSPPIVLNEAVTIAEVKLYGDVVLRYVSYKAEDTEKSEFLPGFERVEDASSFPLDYGIRRLDHAVGNVPELGPALTYVAGFTGFHQFAEFTADDVGTAESGLNSAVLASNDEMVLLPINEPVHGTKRKSQIQTYLEHNEGAGLQHLALMSEDIFRTLREMRKRSSIGGFDFMPSPPPTYYQNLKKRVGDVLSDDQIKECEELGILVDRDDQGTLLQIFTKPLGDRPTIFIEIIQRVGCMMKDEEGKAYQSGGCGGFGKGNFSELFKSIEEYEKTLEAKQLVG
notes: 4-hydroxyphenylpyruvate dioxygenase (AtHPPD), Arabidopsis thaliana, full-length CDS in pET-15b; For MST the His tag was labelled with RED-tris-NTA 2nd generation dye; A low level of self-hydroxylation of phenylalanines is reported also for the untreated protein; also called AtHPPD-WT; His-labeled AtHPPD; source: E. coli BL21(DE3), purified; not shown: His6, N-terminal, kept

Experiment [1] deals with B2. In words: MST; His-AtHPPD (or mutants) labelled with RED-tris-NTA 2nd generation, constant 400 nM; GST-PUB11-ARM serially diluted; 25°C; 20 mM HEPES pH 8.0, 100 mM NaCl; three repeats. Particulars: both partners purified.
Another experiment addresses T1, full-length MBP-PUB11. In words: pull-down; purified MBP-PUB11 full length or truncated variants (or MBP alone) with purified His-AtHPPD, 4°C; immunoblot with anti-His and anti-MBP. The settings on record: both partners purified. On the technique in general: In western blotting, separated proteins are transferred to a membrane and probed.

A word on the Kd: it is a measure of binding affinity in units of concentration. High values mean weaker binding, low ones tighter binding.

Molecule B1 came in with a dissociation constant (Kd) in experiment [1] of 7.42 µM.
For B2, in the experiment with full-length MBP-PUB11, the binding result is on record as “binds”.
